The source of these data is patent US20220251202A1 (ASHER BIOTHERAPEUTICS, published 2022).

This test has as its target T1, mouse CD8 (on mouse CD8+ T cells) (mouse, UniProt P01731 28-247; P10300 22-213).
T1 construct: whole, on cells
Put plainly: flow cytometry on mouse splenocytes, anti-hFc MFI. As for the experimental part:
Fresh splenocytes were incubated with the indicated antibodies for 2 hours at 4° C. The cells were then stained with antibodies against CD3, CD4, CD8 and anti-hFc. anti-hFc was used to measure the binding of CD8-IL2 fusion containing hFc. Cells were washed and analyzed by flow cytometry.
The binding affinity of anti-mouse CD8 antibodies was determined through flow cytometry analysis. […] The xCD8ab2.1 clone is derived from xCD8ab2 by introduction of mutations N95A (VH) and D92A (VK). After incubation with the anti-mouse CD8 antibody, the cells were then stained with antibodies against CD3, CD4, CD8 and anti-hFc (HP6017, Biolegend), the latter of which was used to measure the binding of CD8-IL2 fusion containing hFc. Stained cells were washed and analyzed by flow cytometry and mean fluorescence intensity (MFI) of staining with anti-hFc was used to denote binding.

B1: xmCD8ab2 (published clone YTS156.7.7) (antibody, V domains shown)
VH: EVKLQESGPSLVQPSQTLSLTCSVSGFSLISDSVHWVRQPPGKGLEWMGGIWADGSTDYNSALKSRLSISRDTSKSQGFLKMNSLQTDDTAIYFCTSNRESYYFDYWGQGTMVTVSS
VL: DIQMTQSPASLSASLGDKVTITCQASQNIDKYIAWYQQKPGKAPRQLIHYTSTLVSGTPSRFSGSGSGRDYSFSISSVESEDIASYYCLQYDTLYTFGAGTKLELK
notes: Carries a human Fc; also called xCD8ab2
Take B1: the binding result was “binds”.

B2: xmCD8ab2.1 (antibody, V domains shown)
VH: EVKLQESGPSLVQPSQTLSLTCSVSGFSLISDSVHWVRQPPGKGLEWMGGIWADGSTDYNSALKSRLSISRDTSKSQGFLKMNSLQTDDTAIYFCTSARESYYFDYWGQGTMVTVSS
VL: DIQMTQSPASLSASLGDKVTITCQASQNIDKYIAWYQQKPGKAPRQLIHYTSTLVSGTPSRFSGSGSGRDYSFSISSVESEDIASYYCLQYATLYTFGAGTKLELK
notes: Carries a human Fc; also called xCD8ab2.1
Take B2: the binding result was “binds”.
